# Measurements: patent US20190375844A1 (OSE IMMUNOTHERAPEUTICS, published 2019)
# T1: recombinant hCD127 (Sino Biologicals, reference 10975-H08H) (human, UniProt P16871 21-239)
# T1 construct: Bought recombinant protein; In the Blitz assay the protein is said to be captured by an Fc fragment, and a second catalogue number (11612-H08H) is printed; also called human CD127 recombinant protein; recombinant human CD127
# T1 chain: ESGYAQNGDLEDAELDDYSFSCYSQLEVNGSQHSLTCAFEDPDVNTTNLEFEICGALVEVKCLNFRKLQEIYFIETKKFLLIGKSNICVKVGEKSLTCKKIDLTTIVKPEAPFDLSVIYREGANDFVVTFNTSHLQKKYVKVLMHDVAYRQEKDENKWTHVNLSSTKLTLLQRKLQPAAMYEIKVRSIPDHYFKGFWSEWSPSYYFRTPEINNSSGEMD
# T2: human CD127 (IL-7Rα) on human PBMC (human, UniProt P16871 21-459)
# T2 chain: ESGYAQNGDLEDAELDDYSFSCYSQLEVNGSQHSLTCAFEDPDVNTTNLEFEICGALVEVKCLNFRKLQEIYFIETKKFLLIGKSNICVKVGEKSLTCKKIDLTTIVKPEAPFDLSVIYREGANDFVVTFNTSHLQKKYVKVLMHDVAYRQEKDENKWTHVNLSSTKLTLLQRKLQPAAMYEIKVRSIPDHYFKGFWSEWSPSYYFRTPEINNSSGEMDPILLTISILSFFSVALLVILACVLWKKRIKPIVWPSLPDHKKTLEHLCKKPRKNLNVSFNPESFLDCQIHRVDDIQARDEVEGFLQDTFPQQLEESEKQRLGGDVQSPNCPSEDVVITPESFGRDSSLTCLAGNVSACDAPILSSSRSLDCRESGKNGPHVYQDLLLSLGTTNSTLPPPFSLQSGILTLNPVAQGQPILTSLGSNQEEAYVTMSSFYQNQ
# T3: recombinant hCD127 (Sino Biologicals, reference 10975-H08H) (human) (UniProt P16871)
# T3 sequence: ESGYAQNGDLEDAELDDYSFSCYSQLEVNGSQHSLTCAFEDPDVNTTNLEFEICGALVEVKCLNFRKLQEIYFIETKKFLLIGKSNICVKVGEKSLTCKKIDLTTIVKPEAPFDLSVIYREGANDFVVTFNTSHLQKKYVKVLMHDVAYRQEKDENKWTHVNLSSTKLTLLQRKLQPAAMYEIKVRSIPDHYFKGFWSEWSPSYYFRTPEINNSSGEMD
# Tests used:
# [1] = target: T1, recombinant hCD127 (Sino Biologicals, …); assay: ELISA, hCD127 immobilized on plastic at 1 µg/ml (given as ED50)
# Method: (§1) For activity ELISA assay, recombinant hCD127 (Sino Biologicals, Beijing, China; reference 10975-H08H) was immobilized on plastic at 1 μg/ml and dilutions of anti-CD127 antibody were added to measure binding.
# [2] = target: T2, human CD127 (IL-7Rα) on human PBMC; assay: cell-based or functional assay
# [3] = target: T1, recombinant hCD127 (Sino Biologicals, …); assay: Blitz (BLI), hCD127 captured on anti-human IgG Fc (AHC) biosensor, antibody at 20 µg/mL
# Method: Recombinant hCD127 (Sino Biologicals, Beijing, China; reference 10975-H08H)/recombinant protein (Sino Biological Cat: 11612-H08H) was immobilized at 50 μg/ml by Fc fragment into anti-human IgG Fc (AHC) biosensor (Forte Bio, 18-5063) for 30 seconds. Then, anti-CD127 antibodies were added at 20 μg/mL (saturating concentration) for an association period of 120 seconds, followed by a dissociation period of anti-CD127 antibody in kinetics buffer for 120 seconds. Data analysis was made with the Blitz pro 1.2 software, which calculated association constant (ka) and dissociation constant (kd) and determined the affinity constant KD […].
# [4] = target: T1, recombinant hCD127 (Sino Biologicals, …); assay: ELISA on CD127 after storage of the antibody 30 days at 42° C. (given as ED50)
# Method: as §1
# (§2) Stability of the antibodies was studies by incubating the antibodies for 7, 14, or 30 days at 4° C., 25° C. and 42° C.
# [5] = target: T1, recombinant hCD127 (Sino Biologicals, …); assay: ELISA on CD127 after storage of the antibody 7 days at 42° C. (given as ED50)
# Method: as §1, §2
# [6] = target: T1, recombinant hCD127 (Sino Biologicals, …); assay: ELISA on CD127 after storage of the antibody 7 days at 25° C. (given as ED50)
# Method: as §1, §2
# [7] = target: T1, recombinant hCD127 (Sino Biologicals, …); assay: ELISA on CD127 after storage of the antibody 14 days at 25° C. (given as ED50)
# Method: as §1, §2
# [8] = target: T1, recombinant hCD127 (Sino Biologicals, …); assay: ELISA on CD127 after storage of the antibody 14 days at 42° C. (given as ED50)
# Method: as §1, §2
# [9] = target: T1, recombinant hCD127 (Sino Biologicals, …); assay: ELISA on CD127 after storage of the antibody 30 days at 4° C. (given as ED50)
# Method: as §1, §2
# [10] = target: T1, recombinant hCD127 (Sino Biologicals, …); assay: ELISA on CD127 after storage of the antibody 30 days at 25° C. (given as ED50)
# Method: as §1, §2
# [11] = target: T1, recombinant hCD127 (Sino Biologicals, …); assay: ELISA on CD127 after storage of the antibody 14 days at 4° C. (given as ED50)
# Method: as §1, §2
# [12] = target: T1, recombinant hCD127 (Sino Biologicals, …); assay: ELISA on CD127 after storage of the antibody 7 days at 4° C. (given as ED50)
# Method: as §1, §2
# [13] = target: T1, recombinant hCD127 (Sino Biologicals, …); assay: method not stated
# [14] = target: T3, recombinant hCD127 (Sino Biologicals, reference 10975-H08H) (human); assay: method not stated
EC50 [1] [µg/mL],"IC50-MFI, inhibition of IL7-induced STAT5 phosphorylation in CD3+ human PBMC [2] [µg/mL]",Kd [3] [nM],koff [3] [s⁻¹],kon [3] [M⁻¹ s⁻¹],Binder,also measured
0.0168,0.0215,2.33,0.00267,1.15e+06,"N13B2-h3 (antibody, V domains shown, also called humanized N13B2 of WO 2015/189302) VH: QVQLVESGGGLVKPGGSLRLSCAVSGFTLSDYYMAWIRQAPGKGLEWVSTISASGLRTYYPDSVKGRFTISRDNAKNSLYLQMNSLRAEDTAVYYCARPLSAHYGFNYFDYWGQGTLVTVSS VL: EIVMTQSPATLSVSPGERATLSCRTSEDIYQGLAWYQQKPGQAPRLLIYSANTLHIGIPARFSGSGSGTEFTLTISSLQSEDFAVYYCQQYYDYPLAFGGGTKVEIKR",–
–,0.0272,–,–,–,"N13B2-hVL3 (antibody, V domains shown) VH: QVQLVESGGGLVKPGGSLRLSCAVSGFTLSDYYMAWIRQAPGKGLEWVSTISASGLRTYYPDSVKGRFTISRDNAKNSLYLQMNSLRAEDTAVYYCARPLSAHYGFNYFDYWGQGTLVTVSS VL: DIQMTQSPSSLSASVGDRVTITCRTSEDIYQGLAWYQQKPGKAPKLLVYSANTLHIGVPSRFSGSGSGTDYTLTISSLQPEDFATYFCQQYYDYPLAFGGGTKVEIKR",–
0.0148,0.0273,2.63,0.00266,1.01e+06,"N13B2-hVL5 (antibody, V domains shown, also called N13B2-VL5-F87Y) VH: QVQLVESGGGLVKPGGSLRLSCAVSGFTLSDYYMAWIRQAPGKGLEWVSTISASGLRTYYPDSVKGRFTISRDNAKNSLYLQMNSLRAEDTAVYYCARPLSAHYGFNYFDYWGQGTLVTVSS VL: DIQMTQSPSSLSASVGDRVTITCRTSEDIYQGLAWYQQKPGKAPKLLVYSANTLHIGVPSRFSGSGSGTDYTLTISSLQPEDFATYYCQQYYDYPLAFGGGTKVEIKR",–
0.0095,0.0168,2.53,0.00266,1.05e+06,"N13B2-hVL6 (antibody, V domains shown, also called N13B2-h3VL6; N13B2-VL6-V48L-F87Y) VH: QVQLVESGGGLVKPGGSLRLSCAVSGFTLSDYYMAWIRQAPGKGLEWVSTISASGLRTYYPDSVKGRFTISRDNAKNSLYLQMNSLRAEDTAVYYCARPLSAHYGFNYFDYWGQGTLVTVSS VL: DIQMTQSPSSLSASVGDRVTITCRTSEDIYQGLAWYQQKPGKAPKLLLYSANTLHIGVPSRFSGSGSGTDYTLTISSLQPEDFATYYCQQYYDYPLAFGGGTKVEIKR",EC50 [4]: 0.0587 µg/mL; EC50 [5]: 0.0562 µg/mL; EC50 [6]: 0.0478 µg/mL; EC50 [7]: 0.0526 µg/mL; EC50 [8]: 0.0406 µg/mL; EC50 [9]: 0.047 µg/mL; EC50 [10]: 0.0402 µg/mL; EC50 [11]: 0.0628 µg/mL; EC50 [12]: 0.0553 µg/mL; Kd [13]: 0.2 nM
0.0126,0.0161,2.71,0.00281,1.04e+06,"N13B2-hVL4 (antibody, V domains shown, also called N13B2-VL4-V48L) VH: QVQLVESGGGLVKPGGSLRLSCAVSGFTLSDYYMAWIRQAPGKGLEWVSTISASGLRTYYPDSVKGRFTISRDNAKNSLYLQMNSLRAEDTAVYYCARPLSAHYGFNYFDYWGQGTLVTVSS VL: DIQMTQSPSSLSASVGDRVTITCRTSEDIYQGLAWYQQKPGKAPKLLLYSANTLHIGVPSRFSGSGSGTDYTLTISSLQPEDFATYFCQQYYDYPLAFGGGTKVEIKR",–
–,–,–,–,–,"1A11 (antibody, V domains shown) VH: EVQLQQSGPELLKPGASMKISCKASGYSFTGYTMNWVKQSHGKNLEWIGLINPYNGVTSYNQKFKGKATLTVAKSSSTAYMELLSLTSEDSAVYYCARGDGNYWYFDVWGAGTTVTVSS VL: EIVLTQSPAITAASLGQKVTITCSASSSVTYMHWYQQKSGTSPKPWIYEISKLASGVPVRFSGSGSGTSYSLTISSMEAEDAAIYYCQEWNYPYTFGGGTKLEIK",Kd [13]: 0.6 nM
–,–,–,–,–,"MD707-13 (antibody, from another filing, human IgG4, V domains shown) VH: QLKESGPGLVQPSQTLSLTCTVSGLSLPNNNIAWIRQSPGKGLEWMGVIWSNGDTDYNSAIRSRLSISRDSSKSQVFLRMNSLQSEDTAMYFCAREGMTTLDYWGQGVVVTVSS VL: EIVLTQSPTTMAASPGEKVTITCRASSSVSYMHWFQQKSGSSPKPWIYDSSDLASGVPDRFSGSGSGTSYSLTISSMEAEDAATYYCLQRSSYPRTFGGGTKLELKR",Kd [14]: 0.5 nM
